This note sets out measurements from article PMC5855949.

The Kd is a measure of binding affinity in units of concentration.

The target of data set [1] is T1, lambda cI repressor, hexa-histidine-tagged (bacteriophage lambda, UniProt P03034 1-237). Kind of data set: filter binding.
For data set [2], the target named is T1, lambda cI repressor, …. Nature of the data set: filter binding. The source holds these as a separate data set.

Like-named read-outs stand apart in the source and are kept apart here.

T1 sequence (P03034 whole entry): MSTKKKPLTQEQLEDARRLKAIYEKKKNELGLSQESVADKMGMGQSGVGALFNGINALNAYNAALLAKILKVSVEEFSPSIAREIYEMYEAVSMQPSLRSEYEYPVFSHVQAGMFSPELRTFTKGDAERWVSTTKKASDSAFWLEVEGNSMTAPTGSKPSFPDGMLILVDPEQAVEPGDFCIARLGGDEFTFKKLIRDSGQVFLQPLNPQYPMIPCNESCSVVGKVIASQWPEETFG

B1: aptamer Tarap (Guu(0/-7)) (structured_RNA)
RNA: GGGAUCGACAGGGCUCCCGUUUGGCUCGGCGAAGAUCGCCUGUACUUUGGAAAGCCGAGUCGU
On to B1, for which the Kd in data set [1] amounted to 518 ± 96 nM; in data set [2], 264 ± 24 nM.
